This note sets out measurements from patent publication US20050037963A1.

Test [1] has as its target endogenous FAK of NIH 3T3 cells (mouse) (UniProt P34152). Put plainly: cell-based or functional assay.
For test [2], the target named is endogenous FIP200 of NIH 3T3 cells (mouse) (UniProt Q9ESK9). Put plainly: cell-based or functional assay.
Chain of endogenous FIP200 of NIH 3T3 cells (mouse) (Q9ESK9 whole entry): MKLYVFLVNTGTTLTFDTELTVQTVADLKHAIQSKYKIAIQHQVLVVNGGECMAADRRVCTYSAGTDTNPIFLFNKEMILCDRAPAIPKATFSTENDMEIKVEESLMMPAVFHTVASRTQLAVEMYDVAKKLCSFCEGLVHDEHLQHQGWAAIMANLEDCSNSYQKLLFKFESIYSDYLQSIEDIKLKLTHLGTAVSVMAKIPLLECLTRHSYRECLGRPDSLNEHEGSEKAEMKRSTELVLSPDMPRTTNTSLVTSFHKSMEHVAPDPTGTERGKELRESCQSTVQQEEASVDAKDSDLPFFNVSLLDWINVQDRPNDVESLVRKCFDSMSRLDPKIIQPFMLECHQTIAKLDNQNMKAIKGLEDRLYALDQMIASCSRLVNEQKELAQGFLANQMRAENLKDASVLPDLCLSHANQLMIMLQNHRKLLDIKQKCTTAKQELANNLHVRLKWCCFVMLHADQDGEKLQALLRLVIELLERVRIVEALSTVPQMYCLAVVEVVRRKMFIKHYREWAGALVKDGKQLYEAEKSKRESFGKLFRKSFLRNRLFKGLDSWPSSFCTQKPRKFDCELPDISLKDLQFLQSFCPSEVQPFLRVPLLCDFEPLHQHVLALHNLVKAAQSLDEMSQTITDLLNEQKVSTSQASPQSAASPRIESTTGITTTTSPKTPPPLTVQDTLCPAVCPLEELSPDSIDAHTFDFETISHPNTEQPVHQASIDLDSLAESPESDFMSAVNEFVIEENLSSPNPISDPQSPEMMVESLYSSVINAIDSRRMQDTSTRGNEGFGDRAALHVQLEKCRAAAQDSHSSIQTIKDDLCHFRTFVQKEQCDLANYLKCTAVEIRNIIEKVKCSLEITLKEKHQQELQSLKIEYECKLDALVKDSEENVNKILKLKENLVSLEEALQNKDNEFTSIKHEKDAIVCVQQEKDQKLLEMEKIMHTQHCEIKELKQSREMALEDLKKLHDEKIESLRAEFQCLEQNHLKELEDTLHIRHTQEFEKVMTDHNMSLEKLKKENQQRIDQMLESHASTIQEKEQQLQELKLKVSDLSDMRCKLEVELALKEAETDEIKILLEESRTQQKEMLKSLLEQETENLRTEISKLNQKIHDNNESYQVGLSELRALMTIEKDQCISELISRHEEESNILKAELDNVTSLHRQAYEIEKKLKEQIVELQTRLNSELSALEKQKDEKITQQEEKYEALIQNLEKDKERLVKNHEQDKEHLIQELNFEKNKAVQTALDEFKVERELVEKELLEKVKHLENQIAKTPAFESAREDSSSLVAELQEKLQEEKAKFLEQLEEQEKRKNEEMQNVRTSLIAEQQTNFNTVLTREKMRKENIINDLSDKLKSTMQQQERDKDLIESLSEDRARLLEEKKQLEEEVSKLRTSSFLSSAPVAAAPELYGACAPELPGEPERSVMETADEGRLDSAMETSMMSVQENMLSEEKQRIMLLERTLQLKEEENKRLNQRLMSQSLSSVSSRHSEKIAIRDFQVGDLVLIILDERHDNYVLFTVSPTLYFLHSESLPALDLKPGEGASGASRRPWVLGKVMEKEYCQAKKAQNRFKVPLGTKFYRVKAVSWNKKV

Chain of endogenous FAK of NIH 3T3 cells (mouse) (P34152 2-1052 limits assumed): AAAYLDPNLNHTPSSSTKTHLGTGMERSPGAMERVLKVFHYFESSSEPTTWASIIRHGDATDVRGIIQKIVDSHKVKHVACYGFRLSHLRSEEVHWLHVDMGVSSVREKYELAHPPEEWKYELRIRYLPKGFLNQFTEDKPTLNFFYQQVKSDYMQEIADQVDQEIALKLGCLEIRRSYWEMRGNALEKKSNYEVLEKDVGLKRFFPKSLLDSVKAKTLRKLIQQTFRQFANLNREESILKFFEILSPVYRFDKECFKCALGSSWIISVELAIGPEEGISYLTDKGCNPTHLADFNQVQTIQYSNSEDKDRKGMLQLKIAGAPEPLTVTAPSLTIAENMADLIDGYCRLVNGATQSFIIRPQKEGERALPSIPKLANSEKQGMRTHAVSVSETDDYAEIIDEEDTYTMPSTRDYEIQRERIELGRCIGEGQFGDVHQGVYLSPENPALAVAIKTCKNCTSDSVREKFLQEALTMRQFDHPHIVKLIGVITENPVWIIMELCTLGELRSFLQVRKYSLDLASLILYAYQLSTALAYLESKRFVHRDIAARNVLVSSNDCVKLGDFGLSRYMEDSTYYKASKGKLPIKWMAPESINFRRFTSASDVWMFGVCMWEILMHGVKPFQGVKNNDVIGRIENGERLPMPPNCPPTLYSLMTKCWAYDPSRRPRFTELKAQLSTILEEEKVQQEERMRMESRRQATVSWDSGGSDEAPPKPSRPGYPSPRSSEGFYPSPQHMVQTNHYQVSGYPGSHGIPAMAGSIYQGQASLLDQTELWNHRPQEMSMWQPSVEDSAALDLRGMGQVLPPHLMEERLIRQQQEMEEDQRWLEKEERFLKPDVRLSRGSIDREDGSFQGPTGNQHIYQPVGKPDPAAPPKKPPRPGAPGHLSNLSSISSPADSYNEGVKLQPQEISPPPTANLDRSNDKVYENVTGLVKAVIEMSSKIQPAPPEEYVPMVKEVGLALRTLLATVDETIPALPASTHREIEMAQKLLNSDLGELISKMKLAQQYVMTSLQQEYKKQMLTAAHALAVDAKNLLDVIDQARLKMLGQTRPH

Regarding “Flag-tagged MD-FIP (middle domain FIP200, residues 639-1373) (from UniProt Q8TDY2 639-1373)”, in test [1], the inhibition of cell spreading on FN (NIH3T3, β-gal cotransfection) was 50%.
Still for that read-out and setting: the value for “Flag-tagged NT-FIP (NH2-terminal FIP200, residues 1-638) (from UniProt Q8TDY2 1-638)” was 50%; that for “Flag-tagged full-length FIP200 (from UniProt Q8TDY2 1-1594)” was 50%.
With “HA-tagged KD^KR (FAK kinase domain, residues 403-672, with the kinase-defective mutation K454 to R)”, the cells entering S-phase on PLL (BrdU incorporation, NIH3T3) in test [2] was found to be 30%.
Consider “HA-tagged full-length FIP200 (pKH3-FIP200, residues 1-1591) (from UniProt Q8TDY2 1-1594)”, for which the inhibition of cell cycle progression (BrdU incorporation, NIH3T3) in test [1] came out at 90%.
